This note sets out measurements from PMC8117407.

For the test, the target named is mXFP-TpoR (thrombopoietin receptor N-terminally fused to nonfluorescent mEGFP Tyr66Phe) (UniProt P40238). Briefly: live-cell micropatterning with FRAP.

JAK2 FS L224E (domain or fragment) yielded a fold reduction of binding stability against JAK2 FS wt of 20 fold.
